The DeepSol protein solubility set

test: soluble on expression in E. coli; label from the status in PepcDB or PDB records

Soluble on expression in E. coli, not soluble:
MGSDKIHHHHHHVRKFKIPNMGALLAFEAAARHESFTHAARELFLTESAVSRQINTLESNLGVRLFVRVKQRVMLTRAGKVYSAQVRRSLEQLDRDTLSIIAHGSGGGYLELAVLPTFASQWLIPRLAAFNAQYPDVRVNMGVRTGTFPFAETHFEAAIHYGKPTWPGTSADFLFSEEVVPVCAASLLKRPVQSAADLLDYPLVHSTTRPDGWAAWFANMGIDDNRTMQGVRYELHTMLISAAAAGLGIALVPRFFVDAQLEQLGLVIPLDAPVVADSAYYLVYPTELSHGKPLASFREWLLREAAAYSAVNPELGGPRDMD
MSIKIDLNKCVGCQKCINICPGSLIDKNNDGKAYIKYPKDCWGCTACLKECKFKAIKYFLGADIGGNGSYMYVSEKGEELEWHMINEDGKEKIITTSRKESNKYLEHHHHHH
MGSDKIHHHHHHAQTTDPNQLKNEGNDALNAKNYAVAFEKYSEYLKLTNNQDSVTAYNCGVCADNIKKYKEAADYFDIAIKKNYNLANAYIGKSAAYRDMKNNQEYIATLTEGIKAVPGNATIEKLYAIYYLKEGQKFQQAGNIEKAEENYKHATDVTSKKWKTDALYSLGVLFYNNGADVLRKATPLASSNKEKYASEKAKADAAFKKAVDYLGEAVTLSPNRTEIKQMQDQVKAMIK
MGSDKIHHHHHHMDLTTAQVSRLISELETRLGTKLIQRSTRQQALTDIGATYAERCRQVISMVDEAEAEVTGTASKPKGRLRVLSMGSFGHHYVFPVMAEFCKHYPELTVEYTTSQYVPDLLAKGVDVSLYLTESLTDSRFVARRIGTIFSVLCASPAYLEKHGVPKSPEDLKNHACLRLVNPSITPDWHLLNANGESYQIDIGGQLIADNPELLLDVVQQDMGVALLPMFSALDAVQNGRLCHILPEWRSPDIGVYTLLPSRHFIDAKTRAWLDWVEEYISPKIEMDASYFYK
MGSDKIHHHHHHMLKEFKEQRLKEIQELRSMGIEPYPYKFEKELTAREIREKYDYLQAGEVLESEKLSFAGRVMSIRHHGKTAFFHMKDDTGRIQAYIKADSVGKEKMDLFKRHVKIGDFVGVRGFPFKSKTGELTIYVQEYTLLSKALRPLPEKWHGIKDKEIIYRQRYLELIVNDEAIERFKKRFKAVRVIREFLNSRGFIEVETPILHYVTGGAEARPFVTHLNVFDIDMYLRIAPELYLKRLIVGGFEKIYEIGKNFRNEGISYKHSPEFTSIEIYQAYADYNDMMDLTEELIVEVVKRTCGTLKISYQGKEIDFTPPWKRVRMRDFLKEKLGVDILEDPDEVLLKKLEEHGVELEIKNRAHLIDKLRDLVEEELVNPTFIIDHPVVISPLAKRHREDPRLTERFELIIFGREIANAFSELNDPVDQYQRFLEQAKMREEGDEEAHMMDLDFVRALEYGMPPTGGLGIGLDRLFMFITDSPTIRDVIPFPIVKPKKFEEEEAEFEGGFEE
HPHVENFTIIGSGFQAETQLEGMITVSHPQSIRVYSRNYDHAKDFASRMSKQFGVDIRPVDNAEAALSDADTVSSITNSTSPVILRKYLGDEYHVNLAGSNYMNRREAEYEVLHDADLVVTEHYDQSMVESAEISEYVKFGGKPVELREIAGRYGEFSGLRRTVFKSMGIGLEDIATAYRVLRNLGIA
MGSDKIHHHHHHMKIYVDGREVIINDNERNLLEALKNVGIEIPNLCYLSEASIYGACRMCLVEINGQITTSCTLKPYEGMKVKTNTPEIYEMRRNILELILATHNRDCTTCDRNGSCKLQKYAEDFGIRKIRFEALKKEHVRDESAPVVRDTSKCILCGDCVRVCEEIQGVGVIEFAKRGFESVVTTAFDTPLIETECVLCGQCVAYCPTGALSIRNDIDKLIEALESDKIVIGMIAPAVRAAIQEEFGIDEDVAMAEKLVSFLKTIGFDKVFDVSFGADLVAYEEAHEFYERLKKGERLPQFTSCCPAWVKHAEHTYPQYLQNLSSVKSPQQALGTVIKKIYARKLGVPEEKIFLVSFMPCTAKKFEAEREEHEGIVDIVLTTRELAQLIKMSRIDINRVEPQPFDRPYGVSSQAGLGFGKAGGVFSCVLSVLNEEIGIEKVDVKSPEDGIRVAEVTLKDGTSFKGAVIYGLGKVKKFLEERKDVEIIEVMACNYGCVGGGGQPYPNDSRIREHRAKVLRDTMGIKSLLTPVENLFLMKLYEEDLKDEHTRHEILHTTYRPRRRYPEKDVEILPVPNGEKRTVKVCLGTSCYTKGSYEILKKLVDYVKENDMEGKIEVLGTFCVENCGASPNVIVDDKIIGGATFEKVLEELSKNG
MAHHHHHHMGDNGGMVLFKAIAGAIEDGEDKLEYLNLEVNELGEKTAKAMQRVLSSSTALKTLRLSYNSFGGASKYIMEGLAENKYLRSLFLSFCEIREADGAAIGTALTANSTLQHLDLSNNKLKDAGSKCIAEAMKTNEGLISLNLSCNKIADDGGKAIALFLTSNRTLRELNLRRNCMSNATGELLDDQLRGNMTLEKMNVGFNDFRYKSLIGHRTTLARNAEKNKSLIVPKLRAEIEGLSFKERDLSQAEDEIEMERRIIKDRSEQLLRRNEEARVASEKARREIADLEKNLAAVRVRFESAEEVLLRTEERVSNEMAEISGRKANMEARVQQEREKVDRLQREMDRVRRQLKQLEEAEASRLKPLFLEFGIAEADRDREAKECQYEADKLAALELQRKELEKKLGLSLPVAGGVSAPTAKKRK
MSQIKNYMEEVVFSLMKDVLSDINVCSCEKCRMDIAAIALNNLPPKYIVTDKGELYSKVDSLKQQFEVDVISALAKAAVIVKRNPRHE
MGSDKIHHHHHHMIYMRLKLSFIYDGDKFQPNKHAVQGFIYNMLRGTEYEDRHNRRGFKFFTFSDVFRDSKGYYSLLIASPDSGFINALYLSLKDRDHVYIGKDEIKLVEVKKFKLKLKRAFQTGSPVVIYKDSRKNEYFKLHEHRDLLFFLQRLKENAEKKFNSFYGDEFHLEGLIFDRVIPKVRKNGKVDVYVKVVKNGVPFPVIGTNWELLEKERIKPEERRFYRFIMDCGLGEKNSLGFGFLNPIKGVKN

Soluble on expression in E. coli, soluble:
NSSKCYIQVTGMTCASCVANIERNLRREEGIYSILVALMAGKAEVRYNPAVIQPPMIAEFIRELGFGATVIENIEGR
MMIMREILISECIELLRSHKFIVSKPLGRSCFDMVASKEDIRLILKILKNIDSLSRDQSKELKKISKILHGTPLIIGIRTRNAPMEHGVVYDRYNIKAVTFETFRDYLEGSPPMVYANRGGFFVKIDGKVLKEVREAMGISVGKLAEVAGVSRKAIYKYETQMANPSVDVALKIEEFLDVPLVKGIDLFEPVDDEDVENKLENLEDFKKEAINFLNELGFKSFVVEKAPFDAVAEKDMDNNLNILLTNIEEKDNEEVKRKALFVRELSRLLDGYSLLILEEKEKEYKNLPVVSIEELKKMDDALELIEHIKSMLRDIR
MMSDQENENEHAKAFLGLAKCEEEVDAIEREVELYRLNKMKPVYEKRDAYIDEIAEFWKIVLSQHVSFANYIRASDFKYIDTIDKIKVEWLALESEMYDTRDFSITFHFHGIEGDFKEQQVTKVFQIKKGKDDQEDGILTSEPVPIEWPQSYDSINPDLIKDKRSPEGKKKYRQGMKTIFGWFRWTGLKPGKEFPHGDSLASLFSEEIYPFCVKYYAEAQRDLEDEEGESGLSADGDSEDDDGSLGEVDLPLSDEEPSSKKRKV
MSLTADVDYPLLAKMRSASRRALTSLVDWFGTMAQDLDHQGLTTLAGELVSVARLLDREAVVTRYLTVPAEDATPRIRLIERLVSGKVGAPTLEVLRTAVSKRWSANSDLIDAIEHVSRQALLELAERAGQVDEVEDQLFRFSRILDVQPRLAILLGDCAVPAEGRVRLLRKVLERADSTVNPVVVALLSHTVELLRGQAVEEAVLFLAEVAVARRGEIVAQVGAAAELSDAQRTRLTEVLSRIYGHPVTVQLHIDAALLGGLSIAVGDEVIDGTLSSRLAAAEARLPDEGHHHHHH
MRGSHHHHHHGSLMPGGKEFYNFYPEYVVGLQWMGDNYVFIEGDDLVFNKANGKSAQTTRFSAADLNALMPEGCKFQTTDAFPSFRTLDAGRGLVVLFTQGGLVGFDMLARKVTYLFDTNEETASLDFSPVGDRVAYVRNHNLYIARGGKLGEGMSRAIAVTIDGTETLVYGQAVHQREFGIEKGTFWSPKGSCLAFYRMDQSMVKPTPIVDYHPLEAESKPLYYPMAGTPSHHVTVGIYHLATGKTVYLQTGEPKEKFLTNLSWSPDENILYVAEVNRAQNECKVNAYDAETGRFVRTLFVETDKHYVEPLHPLTFLPGSNNQFIWQSRRDGWNHLYLYDTTGRLIRQVTKGEWEVTNFAGFDPKGTRLYFESTEASPLERHFYCIDIKGGKTKDLTPESGMHRTQLSPDGSAIIDIFQSPTVPRKVTVTNIGKGSHTLLEAKNPDTGYAMPEIRTGTIMAADGQTPLYYKLTMPLHFDPAKKYPVIVYVYGGPHAQLVTKTWRSSVGGWDIYMAQKGYAVFTVDSRGSANRGAAFEQVIHRRLGQTEMADQMCGVDFLKSQSWVDADRIGVHGWAYGGFMTTNLMLTHGDVFKVGVAGGPVIDWNRYEIMYGERYFDAPQENPEGYDAANLLKRAGDLKGRLMLIHGAIDPVVVWQHSLLFLDACVKARTYPDYYVYPSHEHNVMGPDRVHLYETITRYFTDHL
SLSQIKVLIVDDARFIRDHVTRIVKEHFPEYQIDAAEDGDDGQKAMSKVDYDLILCDWEMPGKSGLELLTWARSQPHYADIPFVMVTEG
MSLADKAFHTRLINMRRDLHEHPELSFQEVETTKKIRRWLEEEQIEILDVPQLKTGVIAEIKGREDGPVIAIRADIDALPIQEQTNLPFASKVDGTMHACGHDFHTASIIGTAMLLNQRRAELKGTVRFIFQPAEEIAAGARKVLEAGVLNGVSAIFGMHNKPDLPVGTIGVKEGPLMASVDRFEIVIKGKGGHAGIPNNSIDPIAAAGQIISGLQSVVSRNISSLQNAVVSITRVQAGTSWNVIPDQAEMEGTVRTFQKEARQAVPEHMRRVAEGIAAGYGAQAEFKWFPYLPSVQNDGTFLNAASEAAARLGYQTVHAEQSPGGEDFALYQEKIPGFFVWMGTNGTEEWHHPAFTLDEEALTVASQYFAELAVIVLETIKEGGSHHHHHH
GEEQPQQISVASGTPVSADQTPATPQEQPRAPWWDASPGVQRLITLKDPQVVCEAASAGLLKTLRFVKYLPCFQILPLDQQLVLVRSCWAPLLMLELAQDHLHFEMMEIPETNTTQEMLTTRRQETEGPEPAEPQATEQPQMVSAEAGHLLPAAAVQAIKSFFFKCWSLNIDTKEYAYLKGTVLFNPDLPGLQCVKYIEGLQWRTQQILTEHIRMMQREYQIRSAELNSALFLLRFINSDVVTELFFRPIIGAVSMDDMMLEMLCAKL
EVQLQQSGAELVRPGTSVKLSCKASGYSFTNYWMNWLRQRPGQGLDWIGMIHPSDSETRLNQKFKDKATLTVDRSSSTAYIQLSSPTSEDSAVYYCARDDYDGAFWGQGTLVTVSAAKTTPPSVYPLAPGSAAQTNSMVTLGCLVKGYFPAPVTVTWNSGSLSSGVHTFPAVLQSDLYTLSSSVTVPSSTWPSETVTCNVAHPASSTKVDKKIVPRDC
SLITVRIGGNEYPLDEVLEDPGRYARHLERAKTIQGFAECGCAEGRPRPKLVIRRHRDIFLLARWPEQAFRHAEGCPFHRKTQTTPGAADSLDAFRMRDGRHDIRLDASLSVSTHTPAKTVQRTPKGQFTKPQRRSAGLLALLEFAWEQAGLNVWPGTGARSWNGCWSQLTAELDDCRINGKDADGLLHVMQRWDPARKSEILAEFEAWQARLSPTAAGNPRGILIGEIESHAATQYGGKVVLRQSTQRFFMSSGLYERLQASFGTALAGIGRAEQRCVAVLLVEKSRSNYLTVVDIGAMLANRQFLPCDSSHEVAMADHLVALRRAFRKPLRHIGRAEVHPDFVLTDVQPETVIEVLGMAGNPAYDARTASKRQHYQTAGVPFLEWDAVATSISSVRVPPAGTRAADAR
